The values below come from article PMC314469, “Protein Interaction Networks by Proteome Peptide Scanning” (PLoS Biology, 2004).

Experiment [1] concerns the target endophilin SH3 (SH3G2_HUMAN), Q99962. In words: SPOT array.
Experiment [2] has as its target T1, amphyphisin SH3 (AMPH_HUMAN), P49418.
T1 chain: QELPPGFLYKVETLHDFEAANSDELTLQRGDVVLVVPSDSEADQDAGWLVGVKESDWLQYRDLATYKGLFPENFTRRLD
In words: SPOT array.

B1: Q9P2T0 193-206 (peptide)
chain: RVEELSRPKRFYLE
Consider B1, for which the normalised SPOT signal, Boehringer light units (BLU); mean over the file's lines of this peptide in experiment [1] turned out to be 210; in experiment [2], 225.

B2: Q96BQ9 4-18 (peptide)
chain: SAPPPPRPPEEPAP
Consider B2, for which the normalised SPOT signal, Boehringer light units (BLU); mean over the file's lines of this peptide in experiment [1] is 65.5; in experiment [2], 85.5.

B3: Q9NPN8 118-131 (peptide)
chain: SAKELRRPPPRSPQ
Take B3: the normalised SPOT signal, Boehringer light units (BLU); mean over the file's lines of this peptide in experiment [1] amounted to 116; in experiment [2], 33.8.

B4: Q9UD05 286-299 (peptide)
chain: RVPIPPRPVKPDYR
B4: the normalised SPOT signal, Boehringer light units (BLU); mean over the file's lines of this peptide in experiment [1] amounted to 6030; in experiment [2], 646.

B5: Q8WU34 71-84 (peptide)
chain: AVWSPRRPTATRDP
For B5, the normalised SPOT signal, Boehringer light units (BLU); mean over the file's lines of this peptide was 97.9 in experiment [1] and 36.2 in experiment [2].

B6: Q9UQ05 500-513 (peptide)
chain: RVHRLPRPLKQRML
On to B6, for which the normalised SPOT signal, Boehringer light units (BLU); mean over the file's lines of this peptide stood at 121 in experiment [1] and 165 in experiment [2].

B7: Q07912 741-754 (peptide)
chain: RVPIPPRPTRPHVQ
Take B7: the normalised SPOT signal, Boehringer light units (BLU); mean over the file's lines of this peptide turned out to be 19700 in experiment [1] and 9630 in experiment [2].

B8: Q96DQ6 175-188 (peptide)
chain: RVLHLRRPGGPPHV
Turning to B8, the normalised SPOT signal, Boehringer light units (BLU); mean over the file's lines of this peptide was determined as 55.3 in experiment [1] and 21.6 in experiment [2].

B9: Q9P1Y6 400-413 (peptide)
chain: RTLGLRRPVHSSSI
B9: the normalised SPOT signal, Boehringer light units (BLU); mean over the file's lines of this peptide in experiment [1] came to 49.2; in experiment [2] it was 20.6.

B10: Q9NV38 3-16 (peptide)
chain: RVLSLLRPWRPLRA
With B10, the figures for the normalised SPOT signal, Boehringer light units (BLU); mean over the file's lines of this peptide in experiment [1] and in experiment [2] were 366 and 1430, respectively.

B11: Q9NYZ2 96-109 (peptide)
chain: RTEGFWRPLRGVNV
As for B11, the results for the normalised SPOT signal, Boehringer light units (BLU); mean over the file's lines of this peptide in experiment [1] and in experiment [2] were 107 and 952, respectively.

B12: Q96CC9 51-64 (peptide)
chain: RTKRFKRPQFSPTG
Regarding B12, the normalised SPOT signal, Boehringer light units (BLU); mean over the file's lines of this peptide in experiment [1] is 12.5; in experiment [2], 33.7.

B13: O00763 939-952 (peptide)
chain: RVKYIKRPGAVLEA
B13: the normalised SPOT signal, Boehringer light units (BLU); mean over the file's lines of this peptide in experiment [1] was determined as 36.2; in experiment [2] it was 27.1.

B14: Q9UIG2 1726-1739 (peptide)
chain: SALRPKRPETPKQT
Regarding B14, the normalised SPOT signal, Boehringer light units (BLU); mean over the file's lines of this peptide in experiment [1] stood at 723; in experiment [2], 588.

B15: O43193 136-149 (peptide)
chain: RYLAISRPLRARVL
Take B15: the normalised SPOT signal, Boehringer light units (BLU); mean over the file's lines of this peptide in experiment [1] was 943; in experiment [2] it was 1320.

B16: P09529 57-70 (peptide)
chain: SSGGFRRPEELGRV
As to B16, the normalised SPOT signal, Boehringer light units (BLU); mean over the file's lines of this peptide in experiment [1] came out at 11.4; in experiment [2], 41.8.

B17: Q92536 412-425 (peptide)
chain: RWKEPKRPRPLKLS
In the case of B17, the normalised SPOT signal, Boehringer light units (BLU); mean over the file's lines of this peptide in experiment [1] came to 419; in experiment [2] it was 56.9.

B18: Q12882 910-923 (peptide)
chain: SSFIPKRPIPTIKD
With B18, the normalised SPOT signal, Boehringer light units (BLU); mean over the file's lines of this peptide was determined as 514 in experiment [1] and 17.6 in experiment [2].

B19: Q96DL6 316-329 (peptide)
chain: SAPGPRRPAPALLA
With B19, the normalised SPOT signal, Boehringer light units (BLU); mean over the file's lines of this peptide in experiment [1] turned out to be 3420; in experiment [2] it was 412.

B20: Q9NP17 122-135 (peptide)
chain: RYLILKRPGFQEHD
As for B20, the normalised SPOT signal, Boehringer light units (BLU); mean over the file's lines of this peptide came to 228 in experiment [1] and 23.9 in experiment [2].

B21: Q92817 837-850 (peptide)
chain: AVSAPKRPRVAPLQ
In the case of B21, the normalised SPOT signal, Boehringer light units (BLU); mean over the file's lines of this peptide in experiment [1] is 240; in experiment [2], 59.

B22: Q9NRK9 487-500 (peptide)
chain: RSWWPQRPGRWLSR
Take B22: the normalised SPOT signal, Boehringer light units (BLU); mean over the file's lines of this peptide was found to be 558 in experiment [1] and 3180 in experiment [2].

B23: O95473 15-28 (peptide)
chain: AVQFLRRPKTITRV
Regarding B23, the results for the normalised SPOT signal, Boehringer light units (BLU); mean over the file's lines of this peptide in experiment [1] and in experiment [2] were 117 and 15.3, respectively.

B24: Q9GZW5 220-233 (peptide)
chain: RTPAPRRPLQRRRP
Take B24: the normalised SPOT signal, Boehringer light units (BLU); mean over the file's lines of this peptide in experiment [1] was found to be 12000; in experiment [2] it was 789.

B25: Q9UHD4 30-43 (peptide)
chain: SAPPPQRPFRVSDH
Consider B25, for which the results for the normalised SPOT signal, Boehringer light units (BLU); mean over the file's lines of this peptide in experiment [1] and in experiment [2] were 5270 and 4530, respectively.

B26: Q06055 26-39 (peptide)
chain: SAVVLKRPEILTDE
For B26, the normalised SPOT signal, Boehringer light units (BLU); mean over the file's lines of this peptide worked out at 38.4 in experiment [1] and 42.7 in experiment [2].

B27: Q14764 501-514 (peptide)
chain: SAGRPKRPHARRAL
Regarding B27, the normalised SPOT signal, Boehringer light units (BLU); mean over the file's lines of this peptide in experiment [1] amounted to 702; in experiment [2], 24.8.

B28: Q13370 310-323 (peptide)
chain: SSKIFRRPSLPSIS
Turning to B28, the figures for the normalised SPOT signal, Boehringer light units (BLU); mean over the file's lines of this peptide in experiment [1] and in experiment [2] were 40.4 and 12.2, respectively.

B29: P01814 35-48 (peptide)
chain: RVSWIRRPPGKALE
Consider B29, for which the normalised SPOT signal, Boehringer light units (BLU); mean over the file's lines of this peptide in experiment [1] amounted to 326; in experiment [2], 15.

B30: P21918 138-151 (peptide)
chain: RYWAISRPFRYKRK
As to B30, the values for the normalised SPOT signal, Boehringer light units (BLU); mean over the file's lines of this peptide in experiment [1] and in experiment [2] were 417 and 1070, respectively.

B31: Q9NPI5 198-211 (peptide)
chain: SAPSPARPARTQGP
B31: the normalised SPOT signal, Boehringer light units (BLU); mean over the file's lines of this peptide is 4590 in experiment [1] and 4310 in experiment [2].

B32: Q9UGB8 794-807 (peptide)
chain: SAHTPGRPPRVTKD
B32: the figures for the normalised SPOT signal, Boehringer light units (BLU); mean over the file's lines of this peptide in experiment [1] and in experiment [2] were 268 and 1950, respectively.

B33: Q99412 18-31 (peptide)
chain: RYLGITRPHKMLTT
On to B33, for which the normalised SPOT signal, Boehringer light units (BLU); mean over the file's lines of this peptide in experiment [1] came to 231; in experiment [2], 102.

B34: Q99754 28-41 (peptide)
chain: SASGIKRPMASEVP
Regarding B34, the normalised SPOT signal, Boehringer light units (BLU); mean over the file's lines of this peptide in experiment [1] stood at 81.2; in experiment [2] it was 17.6.

B35: Q9H0S3 22-35 (peptide)
chain: RTPTPDRPPRSAWG
In the case of B35, the figures for the normalised SPOT signal, Boehringer light units (BLU); mean over the file's lines of this peptide in experiment [1] and in experiment [2] were 395 and 2030, respectively.

B36: P21453 335-348 (peptide)
chain: SAGKFKRPIIAGME
Consider B36, for which the normalised SPOT signal, Boehringer light units (BLU); mean over the file's lines of this peptide is 46.1 in experiment [1] and 42.5 in experiment [2].

B37: Q10466 5697-5710 (peptide)
chain: RVIGLLRPLKDVTV
Take B37: the results for the normalised SPOT signal, Boehringer light units (BLU); mean over the file's lines of this peptide in experiment [1] and in experiment [2] were 261 and 205, respectively.

B38: O76074 102-115 (peptide)
chain: SASEFDRPLRPIVV
Turning to B38, the values for the normalised SPOT signal, Boehringer light units (BLU); mean over the file's lines of this peptide in experiment [1] and in experiment [2] were 54 and 131, respectively.
